From publication doi:10.1101/2020.06.06.138156 (bioRxiv, 2020)

Target: T1, GST-His-hnRNP L RRM2 (162-321) (human, UniProt P14866 162-321)
T1 sequence: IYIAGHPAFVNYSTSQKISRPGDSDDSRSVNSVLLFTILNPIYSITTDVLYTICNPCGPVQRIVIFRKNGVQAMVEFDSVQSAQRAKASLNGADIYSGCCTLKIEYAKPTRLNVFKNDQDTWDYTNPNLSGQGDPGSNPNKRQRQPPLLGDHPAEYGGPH
Assay: pull-down

B1: FLAG-SETD2 SHI (2114-2263) (domain or fragment)
chain: NKLSTEERRKLFEQEVAQREAQKQQQQMQNLGMTSPLPYDSLGYNAPHHPFAGYPPGYPMQAYVDPSNPNAGKVLLPTPSMDPVCSPAPYDHAQPLVGHSTEPLSAPPPVPVVPHVAAPVEVSSSQYVAQSDGVVHQDSSVAVLPVPAPG
  binding result: binds
